Experimental data as given in the DeepSol protein solubility set.

test: soluble on expression in E. coli; label from the status in PepcDB or PDB records

Sequence	soluble on expression in E. coli
MGSDKIHHHHHHMNITIATLGELLVEFLAKKENQGFSSPGEFWGPYPSGAPAIFADQVAKLGFRSLLFSCVGNDAFGVMNITRLSRDGVNVQGISVLPNATTGSAFVSYRSQAQRDFIFNMPDSACGLLSADHLDETLLRQYRHFHIMGSSLFSFRLIDAVRKAISIVKENGGTISFDPNIRKEMLKIREMSQAFEYILDYTDFFLPSDGELDYFGLSKSRDEEKIVARLHKRGIAHVIIKRGARGASYYSKDEQHHVAGYPVKVVDPTGAGDCFGATFVSLFLAGYSVPDALAHANAAGSLAISARGPMEGTSTLAQIKELMRQQN	not soluble
MSLTQEFIDKVSSYLTPDVDIAPISQGAEAIVFTTTTHPYLPRAKDSHQKYIIKYRPPKRYRHPQIDQALTKHRTLNESRLLAKLYLIPGLCVPQLIACDPYNGFIWLEFLGEDLPGGHGFSNLKNFLWMHDQDPYSDLVATTLRKVGRQIGLLHWNDYCHGDLTSSNIVLVRDGARWTPHLIDFGLGSVSNLVEDKGVDLYVLERAILSTHSKHAEKYNAWIMEGFEEVYREQGAKGAKKLKEVTKRFEEVRLRGRKRSMLGEGHHHHHH	not soluble
MGSDKIHHHHHHMKQIKIGTCVPGPVAEEWLKGFVGKGFETFSLNFHMSLEGTDLDKLALSTEQILAGTDSKITTLGYYCNPIQYPEHRKTLEKVICTAEKFGATHVSTFAGAWEGKPVESAYEEFGKVFRELAELAEEKGVKLGIENCLMDGTWEHATCNIGFNPKAWEVMFEEVKNDNFGLEWEPTHQMVQLIDPVTELRKWCKKIVHVHGKDATIDWDAVRHGGISGAVPFVWHRMPGFGDTNWRDIISILRSNGYEDDICIEGYHDPVYRGELEMTGQLHALNYLKWCRGGEFTPTPWEK	not soluble
MTLHLPGADGTLRAYEPRTEPLPTLRATSGSAFSSRTVFSAAHVVADPYADTTPDGPAAVDWDATLAFRRHLWSHGLGVAEAMDTAQRGMGLDWPTAAELIRRSAAEARATGGRIACGVGTDQLTATAATLADVRSAYEEQLAVVEESGAQAILMASRALAATAKGPDDYLEVYGHLLRQAAEPVILHWLGPMFDPALEGYWGSSDLDAATDTFLEVIAAHPDKVDGIKVSLLDAQREIDLRRRLPRGVRCYTGDDFNYPELIAGDEQGFSHALLGIFDPLGPLAAEAVRVLDTGDTDGFRALLDPTVELSRHLFRAPTRYYKTGVVFLAWLAGHQSHFTMVGGLQSARSLPHLARAYELADGLGLFPDPKPAEERMRNLLALYGVN	not soluble
MSNVSSETVNLNNTSIVHMNMSNVTKLTASNYIMWSRQVHALLHGYGLTQYLDATKAAPAREITVNDVASVNPEYEAWSRQDQLIFSALIGTLSLTVQPTVSRAATSADVWATLAGTYAKPSRGHIKQLQHQIKQWKKDTRTIDEYVQGFINRFDQLALIGKIIDHEDQVDYILGGLPEDYKPIVDQMEGRDTPPNGCLTNSCDEDGCFIQMALNSV	soluble
MAHHHHHHMEIADRPLSEIIKEQKIDKELRRRHRGNQSGGNSDKKSVNRQGSSSQRQRNNNNNNTSGSRSRGSGNRSGGNKPESGRRRFRTDGGRRRGGNAVSAGSGSFGASRRRLADRADRRRRGALGGDNGNDGFGRGRDRDNNDRRGVKSAPRRRRISGAERNERNRNRDRRSALSRSRFDRDY	soluble
MSLREAMSKQAMLDAIEAEREVLIGFLQEFVRAASPNPPGDTRAAAAVIQGFLSARGVPNELLGPQESMPNVVSECEGGRAGPRLVYNGHMDVFPVGDGHGWTRDPWSGDIEEGRLHGRGTCDMKTGTAASVIAYAYLYARRAQLAGSVALTAVSDEETGGRWGTRWLLENDTRWRGDCVLNGEPSSLDTIRFSEKGTLRLKFEVLAAGAHGAYVHRSESPTRIAAALIGRLAEVEAIEPSLPAALKAHLQREDVRRALDVAMGEGAADVVTRTTLNVGVLNGGLKINMIPDRCVFEVDIRLPVGTEPDVVLARLEGILAEFPQASMEVQQWHSTPPNVCAHDHPMVDFIADNAQAIVGRRPVAVPSIGSTDCRYWRRSGVPAYVYGPAPGRMAMSNESVDLDEFIAVAKVHAAAGWDYLNGAAEGHHHHHH	soluble
MEANKREIVDFGGLRSYFFPNLAHYITKNDEELFNNTSQANKLAAFVLGASKDAPGDEDILEMILPNDANAAVIAAGMDVCLLLGDKFRPKFDAAAEKLSGLGHAHDLVSVIDDDKKLGMLARKAKLKKTEDAKILQALLKVIAIDDAAEKFVELTELVSQLDLDFDVYVLTKILGLISEETSDEVDIIRDNVVNAFDSCKPLLKQLMLDGPKSEPADPFISLLMDPLEESVGKVVNHIAQLFEEASKNEGDESLVLRSQLGYQLFFLIVRSLADGKREVSKKILSGIPTSVRAEVFPGLQRSVYKSAVFLGNHIIQVLLGSKKSFEDWDVVGVAKDLESAWKRRAIAELIKKFQVSILEQCFDKPVPLIPQSPLNNDAVIDNVNKALQFALWLTEFYGSENETEALGELRFLDSTSKNLLVDSFKKFVQGINSKTHVTRIVESLEKCCLSDTPSGRKSNVQPSTSQQQDSAYTKEEMTTVHNTYSVNTKAQVLNGLSDTNSSGLLVDSKDSLSLQEISCDEVDSSTLLSSSRNIGEGVTVKAVDPVPEKVNDAQQQQTVNEIEMASDANQDTSSSASPEVAPSFSTDGWDSPTKSVALPPGMQQIDEEETTVADKDSTPQPQARAETAWGSGDATPMPLPAPTNQYKVSGFGEAKVAKGFGQFAPTSSAYGGGGGRGGYGGGDRGGRGGYGGDRGGRGGYGGGDRGGRGGYGGDRGRGGYGGRGGRGGF	not soluble
MISAIILSGGKAERMGGEKSFRKSGNKYLIENIADMLIEMEIPFVTVFKNPRFMEKPEEEIEKQLYYYKKYHQTITWDFVPGMGPLIGMLSGMLNTKSQWVFLVPCDMPFITEESIINLLSFIKEAELNGYDCIVPKHKNGFIEPLFSLYHISSVNVLGMVVEEMLEQNRSFPIRRLIDELNPLYVDVDKIDKTCDIFINLNTLKELENACFDRLEHHHHHH	soluble
MNRQLLLDVLPAPAPALNNYIAGPNGQALAAAHALTAGRAIYLWGPAGCGRTHLLRGLSARPEAIYIDAARAAQSLRELAEADSTAPMPRLVAVDDVHRMDDARQAGLFALYNRWRESAATGRAFALAVSGDRAPMSLPLREDLRTRLGWDLVFRLDPLSDADKLAALTAQAAERGLQLAPEVINWMLTHHERDIRKLAALLDALDRYSLATGRPITIPLLRAMLADPHSQATLEHHHHHH	soluble
MRNFKKPDVLVSKCLEHGRCRYDGQMISSDFVKSTKKYFNYVPVCPEVEIGLSIPRNSLKIVFENEKFEFVQNITNNNYTSKITQFSSDFLDSIENIDGAVLKHKSPSCGIKNVKVYTAKGNPTNQKTEGFFAKEVLYRYSNIAIEEESRLRNKRIKDHFLTKLYTIKDFKEVKESESIKNLIEFHTNNKFLFMAYNQKQKDILGNIVGNHNKNFDKIIKLYEKHLQLLLKRPSAIGSNINVLMHIFGYMSNKISKDEKLLFIDSLQRYHDELDCLCVPIILLKSWVIRFNVDYLKKQTYFEPFPQELADNSEMFKRDYWND	not soluble
MSLEQFNVWFTVSEVQGLVKSGGLADVAKALPQALKALHQQVAIALPAYRSVPGKEDAELVLETELTHWPHTQYRVLKRDLDGVPIYLIDCPAYFDRPALYAENNQAYADNGERFGFFSAACLDVLPKLGIQPDIIHANDWHTGLVPFLLKTRYRYDSFFEQVKSVLTVHNAIFKGIFSYHQLEVIPELNLSGMEFLQYGHDHVSMLRAGIAFADKVNAVSPNYAAELLTPLGAHGLVDDFVRRARDLHGIVNGCDYSEWNPRTDHYLPATYSDEPESMRKGKALCKTALQEELHLPVTDVPLFGMVCRLTHQKGFHYLLPILEQFLRNNVQVVIVGTGEPEVAARLNKIAHYHRAKFAFVETYSERLAHWVEAGSDFFLMPSEFEACGLNQIYSMAYGTLPIVREVGGLKDTVNDYDKFPERATGFGYQEPTPEALLITMQRALLFYLQQPEEMLKVQQRAMQQNFSWEESAQEYMKMYRLARFEGHHHHHH	soluble
MSLKYDVCIIGAGPAGYAAAMRALDLNKSVILIEKDKIGGAGLYNGAISSKTFWELAKDIQTARKRLAQYSPDQHFSVTYQQVLRQVREGIANRRFHLEGQIESLAKQQTSRFRYIKGSAKLVSHNTVEVSTGTEEEIIEAENVVIATGSKPRKLPNIPIDEKIIVTSDGVENFENFPKSLVILGAGVIGCEWATIFSNFGYTSVNIIDKAERILPFEDDDVTDVVEANMKKQGITVHKKSNLLSMRIVDGEVEYILEYTDGRKEMHRVEKVLVSVGRIPNTQNLGLERVGVNILANGQIENTDGQTNIPNIYVAGDISSDVALVNVAELEGRHVIEKMFGLSDSVITYNNVSTIMFVQPEVAGVGMNEKKALQNKMSYKVVKIRYDMIPRAIAMRNNDGFFKILVTNDADMKIIGMRAVGVHASSAIQAVALLISMDKGVEELADMIHPHPSIIEGIQECIRMLLGKSVLKPEFFKGMLSCKSCDENGCVNDIIYLREGHHHHHH	soluble
MGSDKIHHHHHHMNFISRVTKKNTYMKKAVIYSRVSTDEQAQLGYSLRDQERCLRLFCEKNDLEVVHHYQDDHSAKDFNRPQFQQFLRDVKSKRIKVDYFVCLKQDRFSRDTRLALNSVHDLEKLGVTVKYVENNLDLSIAENIIPYLLNFGIAELENKRLSERTKKGMRQAKREGRWVGTPPRGYKSIPDSTGKKILTPNQYSTLIIEAFTEFAQGNHSTESLRKVLYARGLKVSENQFPNILKNPIYCGKIRIDEWKEEKEEIVIGIHEPLISVELFEKVQRILNGTSTPNKPHKKLDPELPLRPFLKCSCGSNLTGSRSRSRNGNYHYYYHCQNGCSVRFPAKVANKKFETFLSMFSFSEDVILLYKEVLKDEFSKQVKERLELSAADAALKLKTQNLLDNADEKYIANELDNTTYQRVKEKYQKILDTITNKELDSKVVKSEFEKYLKGVTLLDSLDVKYKEGTIEFKNALLGSIFMGKLEFSENEYRTTQINSVVENLLLNFNELASYKKEKATTNSGFLQQAPPLGLEPRTP	not soluble
GMQTTEIDLRLTEVSQQLTMVLVPGLRDSDDEHWQSHWERRFPHWQRIRQREWYQADLDRWVLAIRRELSVCTQPVILIGHSFGALAACHVVQQGQEGIAGVMLVAPAEPMRFEIDDRIQASPLSVPTLTFASHNDPLMSFTRAQYWAQAWDSELVDVGEAGHINAEAGFGPWEYGLKRLAEFSEILIPNR	soluble
MDSDEEILSSYSSLTVTSRNETTISTRDSASNAMPVVVVDDEIFEDASSDISILTKRQESSSIHLDRSKMRKAVHQDLCTHDQKILEPLFLRKCEPHRVRQGTAPPNVIPIQKVENVEANKKFTGHSALLVSLNTPTYCVRYLAANAVHTPKNVLIFASPLSYVRFVARPDPQRTNQSVFEDPSETVRLMMAPDVAKVAQKMLPKWQTVTFTLAFGKHVAVKYRIIEVRKQPVTYVKAKADRVKRVSTSTLYRTEPVQRVDYWRSFKSNELKLSTVEKNDPQIVKRVFLEQQSLNWDPSGVIGTEKEHHHKTIVKSKKIKTGEELNLMWQRTDFH	not soluble
MELKKLMGHISIIPDYRQAWKMEHKLSDILLLTICAVISGAEGWEDIEDFGETHPDFLKQYGDFENGIPVHDTIARVVSCISPAKFHECFINWMRDCHSSDDKDVIAIDGKTLRHSYDKSRRRGAIHVISAFSTMHSLVIGQIKTDEKSNEITAIPELLNMLDIKGKIITTDAMGCQKDIAEKIQKQGGDYLFAVKGNQGRLNKAFEEKFPLKELNNPAHDSYAMSEKSHGREEIRLHIVCDVPDELIDFTFEWKGLKKLCVAVSFRSIIAEQKKELEMTVRYYISSADLTAEKFATAIRNHWHVENKLHWRLDVVMNEDDCKIRRGNAAELFSGIRHIAINILTNDKVFKAGLRRKMRKAAMDRNYLASVLTGSGLS	soluble
